Results published in paper PMC3438196.

These substances were tested against Gagpol MAPPIT prey (pMG2-Gagpol) (assay: MAPPIT). Settings: not given.
For “Apobec3G-GFP MAPPIT bait (pCEL-Apobec3G-GFP) (from UniProt Q9HC16) D128G”, the percent of parent was 11 % of WT.
With “Apobec3G-GFP MAPPIT bait (pCEL-Apobec3G-GFP) (from UniProt Q9HC16) E191V” the percent of parent was 8 % of WT.
In the case of “Apobec3G-GFP MAPPIT bait (pCEL-Apobec3G-GFP) (from UniProt Q9HC16) N20D”, the percent of parent is reported as 22 % of WT.
In the case of “Apobec3G-GFP MAPPIT bait (pCEL-Apobec3G-GFP) (from UniProt Q9HC16) R30L”, the percent of parent is reported as 5 % of WT.
With “Apobec3G-GFP MAPPIT bait (pCEL-Apobec3G-GFP) (from UniProt Q9HC16) R122C” the percent of parent was 5 % of WT.
“Apobec3G-GFP MAPPIT bait (pCEL-Apobec3G-GFP) (from UniProt Q9HC16) R136S” was tested, and the percent of parent was 24 % of WT.
With “Apobec3G-GFP MAPPIT bait (pCEL-Apobec3G-GFP) (from UniProt Q9HC16) W94R” the percent of parent was 13 % of WT.

The substances below were run against Gag MAPPIT prey (pMG2-Gag) (assay: MAPPIT). Settings: stimulation with Epo; parent: est. 38; read off a plot.
With “Apobec3G MAPPIT bait (pCEL-Apobec3G) (from UniProt Q9HC16) YFW125-127DY” the response (fold induction) was 2.2.

Molecular target: Gagpol MAPPIT prey (pMG2-Gagpol)
Assay: MAPPIT
Settings: not given
Remark: another data set of the same source
“Apobec3G-GFP MAPPIT bait (pCEL-Apobec3G-GFP) (from UniProt Q9HC16) H81L” was tested, and the percent of parent was 33 % of WT.
With “Apobec3G-GFP MAPPIT bait (pCEL-Apobec3G-GFP) (from UniProt Q9HC16) K79M” the percent of parent was 32 % of WT.
“Apobec3G-GFP MAPPIT bait (pCEL-Apobec3G-GFP) (from UniProt Q9HC16) K270E” was tested, and the percent of parent was 67 % of WT.
In the case of “Apobec3G-GFP MAPPIT bait (pCEL-Apobec3G-GFP) (from UniProt Q9HC16) Q237K”, the percent of parent is reported as 46 % of WT.
In the case of “Apobec3G-GFP MAPPIT bait (pCEL-Apobec3G-GFP) (from UniProt Q9HC16) R30L”, the percent of parent is reported as 5 % of WT.
With “Apobec3G-GFP MAPPIT bait (pCEL-Apobec3G-GFP) (from UniProt Q9HC16) R78W” the percent of parent was 6 % of WT.
In the case of “Apobec3G-GFP MAPPIT bait (pCEL-Apobec3G-GFP) (from UniProt Q9HC16) R238C”, the percent of parent is reported as 56 % of WT.
For “Apobec3G-GFP MAPPIT bait (pCEL-Apobec3G-GFP) (from UniProt Q9HC16) W269G”, the percent of parent was 33 % of WT.
In the case of “Apobec3G-GFP MAPPIT bait (pCEL-Apobec3G-GFP) (from UniProt Q9HC16) Y222N”, the percent of parent is reported as 6 % of WT.
